Where a chain is given by its changes, count along the chain named.
T1: plasma-derived human activated protein C (APC) (UniProt P04070 43-461)
T1 chain: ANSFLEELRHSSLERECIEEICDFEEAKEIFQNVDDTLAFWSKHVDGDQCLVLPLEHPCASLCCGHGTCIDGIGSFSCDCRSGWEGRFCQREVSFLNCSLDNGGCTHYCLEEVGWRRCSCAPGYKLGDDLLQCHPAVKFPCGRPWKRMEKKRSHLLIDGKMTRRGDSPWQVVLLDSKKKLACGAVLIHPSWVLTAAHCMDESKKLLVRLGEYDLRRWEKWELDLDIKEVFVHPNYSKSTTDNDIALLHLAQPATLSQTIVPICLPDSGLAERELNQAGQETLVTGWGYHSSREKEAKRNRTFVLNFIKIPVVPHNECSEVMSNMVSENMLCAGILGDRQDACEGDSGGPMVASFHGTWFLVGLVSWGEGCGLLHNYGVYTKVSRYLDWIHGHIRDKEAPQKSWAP

B1: TPP-26935 (antibody, V domains shown)
VH: EVQLVESGGGLVQPGGSLRLSCAASGFTFSNYYINWVRQAPGKGLEWVGDIRLKSNNYEKHYAESVKGRFTISRDDSKNSLYLQMNSLKTEDTAVYYCAREGDYFDYWGQGTLVTVSS
VL: EIVLTQSPGTLSLSPGERATLSCRASQSVSSFGATFMHWYQQKPGQPPKLLIYLASNRASGVPDRFSGSGSGTDFTLKISRVEAEDVGVYYCQQNNEDPYTFGQGTKLEIKR
B2: TPP-26874 (antibody, V domains shown)
VH: EVQLVESGGGLVQPGGSLRLSCAASGFTFSNYYMNWVRQAPGKGLEWVSYISSSSSTIYYADSVKGRFTISRDDSKNSLYLQMNSLKTEDTAVYYCAREGDYFDYWGQGTLVTVSS
VL: B1 VL with E1D, G9A, T10S, S12A, L13V, E17Q, L21I, S22T, R24K
B3: TPP-26882 (antibody, V domains shown)
VH: EVQLVESGGGLVQPGGSLRLSCAASGFTFSNYYMNWVRQAPGKGLEWVGRIKSKTDGGTTDYAAPVKGRFTISRDDSKNSLYLQMNSLKTEDTAVYYCAREGDYFDYWGQGTLVTVSS
VL: B1 VL with K78T, S80N, R81P, E85D, V87T, G88A, V89N
B4: TPP-26869 (antibody, V domains shown)
VH: B2 VH
VL: B1 VL with K78T, S80N, R81P, E85D, V87T, G88A, V89N
B5: TPP-26918 (antibody, V domains shown)
VH: B1 VH with I34M, N35S
VL: DIVLTQSPASLAVSPGQRATITCKASESVDSFGATFMHWYQQKPGQPPKLLIYLASNRASGVPDRFSGSGSGTDFTLKISRVEAEDVGVYYCQQNNEDPYTFGQGTKLEIKR
B6: TPP-26925 (antibody, V domains shown)
VH: B1 VH with I34M, N35S
VL: B5 VL with E27Q, D30S, Q41L, P47S, K49Q
B7: TPP-26894 (antibody, V domains shown)
VH: EVQLVESGGGLVQPGGSLRLSCAASGFTFSNYYMNWVRQAPGQGLEWMGRIIPILGIANYAQKFQGRFTISRDDSKNSLYLQMNSLKTEDTAVYYCAREGDYFDYWGQGTLVTVSS
VL: B1 VL with Q41L, P47S, K49Q
B8: TPP-26920 (antibody, V domains shown)
VH: B1 VH with I34M, N35S
VL: B1 VL with Q41L, P47S, K49Q
B9: TPP-26921 (antibody, V domains shown)
VH: B1 VH with I34M, N35S
VL: B1 VL with K78T, S80N, R81P, E85D, V87T, G88A, V89N
B10: TPP-26926 (antibody, V domains shown)
VH: B1 VH with I34M, N35S
VL: B5 VL with E27Q, D30S
B11: TPP-26864 (antibody, V domains shown)
VH: B2 VH
VL: B1 VL with Q27E, S30D, Q41L, P47S, K49Q
B12: TPP-26924 (antibody, V domains shown)
VH: B1 VH with I34M, N35S
VL: DIVLTQSPASLAVSPGQRATITCKASQSVSSFGATFMHWYLQKPGQSPQLLIYLASNRASGVPDRFSGSGSGTDFTLTINPVEADDTANYYCQQNNEDPYTFGQGTKLEIKR
B13: TPP-26871 (antibody, V domains shown)
VH: B2 VH
VL: B12 VL with L41Q, S47P, Q49K
B14: TPP-26862 (antibody, V domains shown)
VH: B2 VH
VL: B5 VL with L4M, A9L, A12P, S14T, Q17E, R18P, T20S, T22S, K24R, A25S
B15: TPP-26863 (antibody, V domains shown)
VH: B2 VH
VL: DIVMTQSPLSLPVTPGEPASISCRSSESVDSFGATFMHWYLQKPGQSPQLLIYLASNRASGVPDRFSGSGSGTDFTLKISRVEAEDVGVYYCQQNNEDPYTFGQGTKLEIKR
B16: TPP-26873 (antibody, V domains shown)
VH: B2 VH
VL: B5 VL with E27Q, D30S, Q41L, P47S, K49Q
B17: TPP-26872 (antibody, V domains shown)
VH: B2 VH
VL: B12 VL
B18: TPP-24869 (antibody, V domains shown)
VL: DIVMTQSPLSLPVTPGEPASISCRSSESVDSFGATFMHWYLQKPGQSPQLLIYLASNRASGVPDRFSGSGSGTDFTLKISRVEAEDVGVYYCQQNNEDPYTFGQGTKLEIK
B19: TPP-24901 (antibody, V domains shown)
VL: EIVLTQSPGTLSLSPGERATLSCRASESVDSFGATFMHWYLQKPGQSPQLLIYLASNRASGVPDRFSGSGSGTDFTLKISRVEAEDVGVYYCQQNNEDPYTFGQGTKLEIK
B20: TPP-24897 (antibody, V domains shown)
VL: B19 VL with R58L, A59E, D64A
B21: TPP-24909 (antibody, V domains shown)
VL: B19 VL with E27Q, D30S, L41Q, S47P, Q49K
B22: TPP-24827 (antibody, V domains shown)
VL: DIVLTQSPASLAVSPGQRATITCKASESVDSFGATFMHWYQQKPGQPPKLLIYLASNRASGVPDRFSGSGSGTDFTLTINPVEADDTANYYCQQNNEDPYTFGQGTKLEIK
B23: TPP-24853 (antibody, V domains shown)
VL: DIVLTQSPASLAVSPGQRATITCKASQSVSSFGATFMHWYLQKPGQSPQLLIYLASNRASGVPDRFSGSGSGTDFTLKISRVEAEDVGVYYCQQNNEDPYTFGQGTKLEIK
B24: TPP-24833 (antibody, V domains shown)
VL: B23 VL with Q27E, S30D, R58L, A59E, D64A
B25: TPP-24845 (antibody, V domains shown)
VL: B23 VL with L41Q, S47P, Q49K
B26: TPP-24911 (antibody, V domains shown)
VL: EIVLTQSPGTLSLSPGERATLSCRASQSVSSFGATFMHWYLQKPGQSPQLLIYLASNLESGVPARFSGSGSGTDFTLTINPVEADDTANYYCQQNNEDPYTFGQGTKLEIK
B27: TPP-24907 (antibody, V domains shown)
VL: B26 VL with L41Q, S47P, Q49K, L58R, E59A, A64D
B28: TPP-24875 (antibody, V domains shown)
VL: DIVMTQSPLSLPVTPGEPASISCRSSQSVSSFGATFMHWYQQKPGQPPKLLIYLASNRASGVPDRFSGSGSGTDFTLTINPVEADDTANYYCQQNNEDPYTFGQGTKLEIK
B29: TPP-24861 (antibody, V domains shown)
VL: B18 VL with L41Q, S47P, Q49K

Target: T1, plasma-derived human activated protein …
Assay: SPR

Kd [nM]	Binder
18.6	B1
13.2	B2
169	B3
13.5	B4
13.4	B5
27.9	B6
142	B7
28.1	B8
31.1	B9
30.5	B10
8.79	B11
27.5	B12
13.8	B13
13.5	B14
11.2	B15
11.2	B16
12.8	B17

Target: T1, plasma-derived human activated protein …
Assay: SPR
Remark: another data set of the same source

Kd [nM]	Binder
24.2	B18
26.9	B19
47.9	B20
46.2	B21
31.7	B22
51.5	B23
49	B24
54	B25
43.2	B26
45.9	B27
47.7	B28
24.1	B29

Reference: US20250188189A1 (published 2025)
